Laboratory results as given in the supplement of paper PMC12764529.
± gives the half width of the 95% confidence interval.

Experiment: folding stability dG unfold from chymotrypsin proteolysis; higher = more stable
Procedure, shortened: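 Designed mini-proteins with no cysteine and under 80 residues were kept only if AlphaFold2 dimer inter-PAE was above 15. In a PA-tagged cDNA display construct, they were digested with trypsin and chymotrypsin and then sequenced. K50 was inferred by Bayesian fitting of counts, and unfolding free energy was derived per protease or combined against a sequence-predicted unfolded-state K50 and a shared folded-state K50.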

| Sequence | folding stability dG unfold [kcal/mol] |
| --- | --- |
| SAGGSAGGMVISLPNNYKIKLGITDAEFDEVKVYTGPNGPKKLVSGANIKLKIGISIYKSNDNSSAGGSAGG [r6_585_TrMRF] | 1.43 ± 0.19 |
| SAGMEPVSIKITKIEKTPENKDYVIVTVTPPDGVPTEIKVPIEFYKSGKLKNATAEELVKLFPEYKLESAGG [r19_74_JUSTAS] | 2.68 ± 0.045 |
| SNPNEPLTAEEIAKHIEEFMQEEHGIDKIKPEEFTVNPPDGYIKVEMEIEHKNPPGQKHKIDIWIPPDDLSA [r9_1002_TrROS] | 0.0346 ± 0.14 |
| SAGGSAGGSAANVTREPRFDPSTNLVRTLVRFPDGSVREEILEITKNPDGTLTYKRFERPPSAGGSAGGSAG [r3_474_JUSTAS] | 1.59 ± 0.18 |
| SAHTWEIWFPPGLTPEEIQEKLKEEFPGYEIDVDVERDPEPGWYRIEVTMKDPQQRRRVQKKIREILQESAG [r14_443_TrROS] | 2.39 ± 0.048 |
| SAGGSAGGSAGGSIEIIVRTPEMAKQMAKRIQKILADQGNPPPLKIEIHVIPPDDLPPWSAGGSAGGSAGGS [r4_472_TrROS] | 0.571 ± 0.092 |
| SAGGSAGGMTLTLELTLENGKKVRIEVEVNENGSLKVKITYPNGKKVEIEVNMSLEELLKKLLSSAGGSAGG [r6_808_TrROS_Hall] | 3.66 ± 0.14 |
| SAGGSAKMKKVKITLYAKVKSLEEAKEIAEEIKKSFPSIEKVEVKTEPLEDGSLLVKVDAIFYVPESAGGSA [r15_726_TrMRF] | 4.17 ± 0.11 |
| SAMLTILSVETHTLPNGEEIVTVTLKTPDLETLDALLAELGLTGTRDPDDPQVVTITTSREKVQEIKEKSAG [r14_777_JUSTAS] | 4.71 ± 0.2 |
| SAGGSAGGSDPDLDIPPAPLEEIYIPGTGRLLVLYEPTGLVAAYPPSGSFEIGVYDPETGKISSAGGSAGGS [r12_420_TrMRF] | -0.775 ± 0.3 |
| SAGGSAGGKITITLPGAEIVSVEESEDGKTITITVRLENGELLKITLKRVNGKWYITKIELLKPSAGGSAGG [r6_718_TrROS_Hall] | 4.524 ± 0.038 |
| SAGGSAKVKIEVIELPPGMTEEELRKLAEEKGLKVEKVDKENLLVKITAKSKEEAEKIKKELEEKLSAGGSA [r15_546_TrROS_Hall] | 0.748 ± 0.13 |
| SAGGSAGGSKITSIEEKDGFVRITIEVDGKTETKTIPKENLPPNITFPPGAKVKIEKVSKEDLSAGGSAGGS [r12_1005_TrROS_Hall] | 1.74 ± 0.043 |
| SAGGSPEVKIEIEVTERVTVFDENGKPVEEVLVVKAKITFPDGTTATITAFFYEGKWFITSIELEPSAGGSA [r2_158_TrROS_Hall] | 4.83 ± 0.24 |
| SAGGSAGGNLTLPPDNIKRIWHVGDGHWLIKMDDNVLMINPGNGKIQTVKKEDADKLPPGDPFFSAGGSAGG [r6_890_TrROS] | 0.0704 ± 0.19 |
| SAGGKVKVKLSPEMIEALKKAGIKEGQKEVTIEVKLKDGSVYRVTITYDKKTNKITIKVEKVEKLPPSAGGS [r16_497_TrROS_Hall] | 4.16 ± 0.1 |
| SAGGSAGGSKTITVRVKITLPNGETIEVEAEITVRPDGSITITLPDGSTITLPPGAKVEIEPVSAGGSAGGS [r20_227_TrROS_Hall] | 2.51 ± 0.17 |
| SAGGSASNLKVTYKITIGSTTITVTLPEGSEKELKKIPNAEVTPISEIEPAPPPILYFKFENNNLVSAGGSA [r15_443_JUSTAS] | 1.25 ± 0.17 |
| SAGGSAGGSKEKVIEIKIKVKTKEEAKKKAEELAKELEKKGYKIKKVEIKYDKETKEVTVRIESAGGSAGGS [r20_155_TrROS_Hall] | 4.02 ± 0.097 |
| SAGGSAGGSAPWYIAIYMPGNGRKRTYPFKSADDIKEEIKEHLGPGMNPDNVEIKIIPPDDISAGGSAGGSA [r18_350_TrROS] | -0.782 ± 0.81 |
| SAGGSAGGSAGEKVIRFPFKSPEEIREHIKNGRPIRFPNGKPVKITKIQPYPNGWLWITVSAGGSAGGSAGG [r11_48_TrROS] | 1.3 ± 0.12 |
| SAGGMTLKIRVKDKEKALEALKALPGIEVKEVKVEKNENGELTVTVESKEALDALKKAGIEVEEIEPSAGGS [r16_381_TrROS_Hall] | 3.18 ± 0.087 |
| SAGGSAGGSAGGEELEVSVSVSVTEVDGKLYLTATVTIDGKEYTFTAELTVTLPPPPPEESAGGSAGGSAGG [r7_413_TrROS_Hall] | 3.91 ± 0.19 |
| SAGGSAGGSAGMKPGETYLVRIRVKVDGKWYEKEVKFKSLEELKKAGIENIEEIEIRKLPSAGGSAGGSAGG [r17_290_TrROS_Hall] | 2.72 ± 0.075 |
| SAGGMTLVLRFPSKEEALEALRELAEALGLEVEITKIEIEEREVEDPETGEKRREVLITIEVKVKPPSAGGS [r16_587_TrROS_Hall] | 4.62 ± 0.14 |
| SAGGTATLVIPRIYKGSPEEAARAVQEIADALAALGYDVEVDATVYPVGDYLVVTVTVTVTAPPDSPLASAG [r5_217_TrMRF] | 2.82 ± 0.046 |
| SAGGSAGGSAPLRFEFELPGNYRVRIELEPVPDDPSAGPRYRLRIEVFDLETGEVLPFEIDGSAGGSAGGSA [r18_66_TrMRF] | 4.18 ± 0.064 |
| SAGGKTIVIKVKTKEQAKALAEELAKKLKDAGYTVTVTYDEETGVVTVTVTVKVNGKTKKITLVLELPSAGG [r13_641_TrROS_Hall] | 3.05 ± 0.043 |
| MKLLKITITITVTRQFPTVPVTSTTTITLEYTTPPDDPAAIEEAKKTAEEIAKKLGATDVTVTTEEVVLESS [r1_346_JUSTAS] | 4.08 ± 0.057 |
| SEKPEVTIKIEVEEREDGYLVVRVEVTFPEDPEKVELTLEMSREEAEELAKKLAEELPGVKVKVEIVELPSA [r9_374_TrROS_Hall] | 2.4 ± 0.17 |
